This note sets out measurements from patent US10597674B2, “HPPD variants and methods of use” (BASF Agricultural Solutions Seed, US LLC, priority 2015, dated 2020).

SMILES strings stand for the structures. Where two headings read alike, the source gives them in different places.

For the data set, the system named is HPPD polypeptides (wild-type SEQ ID NO:1 and mutants). The conditions noted are these: high substrate concentration; for Residual activity: kapp normalized to kapp without inhibitor; for Residual turnover: total change in signal normalized to no inhibitor.
The mark [1] stands for this setting: in the presence of Cmpd. 1, 15 μM inhibitor.
Where [2] appears, read: in the presence of Cmpd. 2, 15 μM inhibitor.
The mark [3] stands for this setting: in the presence of diketonitrile (DKN), 60 μM inhibitor.
The mark [4] stands for this setting: in the presence of mesotrione (MST), 60 μM inhibitor.

With `CSc1c(C(F)(F)F)ccc(C(=O)Nc2nnnn2C)c1Cl` [Cmpd. 1, 2-chloro-3-(methylsulfanyl)-N-(1-methyl-1H-tetrazol-5-yl)-4-(trifluoromethyl)benzamide, reference compound], the Residual activity is, setting by setting: under setting [1], 6%; under setting [2], 8%; under setting [3], 7%; under setting [4], 6%. The Residual turnover runs as follows: under setting [1], 6%; under setting [2], 8%; under setting [3], 8%; under setting [4], 8%.
